In paper PMC11543664:

Assays:
[1] = target: DosP^FLAG-R97A (full-length DosP with R97A and three copies of the FLAG motif on its C-terminus) (Escherichia coli); test: cryo-EM structure
[2] = target: DosP^WT (wild-type full-length DosP, tag-free after TEV cleavage) (Escherichia coli); test: cryo-EM structure

Row | stoichiometry N [1] | stoichiometry N [2] | Substance
1 | 2 |  | DosP^FLAG-R97A (full-length DosP with R97A and three copies of the FLAG motif on its C-terminus) (enzyme)
2 |  | 2 | DosP^WT (wild-type full-length DosP, tag-free after TEV cleavage) (enzyme)
